# Experimental data: patent EP3088890B1 (Chugai Seiyaku Kabushiki Kaisha, dated 2020)
# T1: GPC3 peptide 541-570 (SEQ ID NO: 28) (human)
# T1 construct: Synthetic 30-residue peptide of GPC3
# T1 peptide: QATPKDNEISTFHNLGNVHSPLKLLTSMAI
# T2: GPC3 peptide 41-70 (SEQ ID NO: 3) (human)
# T2 construct: Synthetic 30-residue peptide of GPC3
# T2 peptide: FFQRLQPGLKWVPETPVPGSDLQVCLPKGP
# T3: GPC3 peptide 221-250 (SEQ ID NO: 12) (human)
# T3 construct: Synthetic 30-residue peptide of GPC3
# T3 peptide: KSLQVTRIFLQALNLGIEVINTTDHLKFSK
# T4: GPC3 peptide 301-330 (SEQ ID NO: 16) (human)
# T4 construct: Synthetic 30-residue peptide of GPC3
# T4 peptide: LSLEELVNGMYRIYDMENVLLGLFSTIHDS
# T5: GPC3 peptide 121-150 (SEQ ID NO: 7) (human)
# T5 construct: Synthetic 30-residue peptide of GPC3
# T5 peptide: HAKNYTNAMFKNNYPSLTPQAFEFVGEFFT
# T6: GPC3 peptide 521-550 (SEQ ID NO: 27) (human)
# T6 construct: Synthetic 30-residue peptide of GPC3
# T6 peptide: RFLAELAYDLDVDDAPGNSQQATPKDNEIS
# T7: GPC3 peptide 441-470 (SEQ ID NO: 23) (human)
# T7 construct: Synthetic 30-residue peptide of GPC3
# T7 peptide: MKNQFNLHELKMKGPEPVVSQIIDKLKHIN
# T8: GPC3 peptide 141-170 (SEQ ID NO: 8) (human)
# T8 construct: Synthetic 30-residue peptide of GPC3
# T8 peptide: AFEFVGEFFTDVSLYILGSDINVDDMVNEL
# T9: GPC3 peptide 321-350 (SEQ ID NO: 17) (human)
# T9 construct: Synthetic 30-residue peptide of GPC3
# T9 peptide: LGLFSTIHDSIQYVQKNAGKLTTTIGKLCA
# T10: GPC3 peptide 161-190 (SEQ ID NO: 9) (human)
# T10 construct: Synthetic 30-residue peptide of GPC3
# T10 peptide: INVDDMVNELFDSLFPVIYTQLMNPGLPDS
# T11: GPC3 peptide 281-310 (SEQ ID NO: 15) (human)
# T11 construct: Synthetic 30-residue peptide of GPC3
# T11 peptide: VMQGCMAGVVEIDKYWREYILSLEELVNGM
# T12: GPC3 peptide 461-490 (SEQ ID NO: 24) (human)
# T12 construct: Synthetic 30-residue peptide of GPC3
# T12 peptide: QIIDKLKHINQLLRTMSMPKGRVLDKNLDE
# T13: GPC3 peptide 381-410 (SEQ ID NO: 20) (human)
# T13 construct: Synthetic 30-residue peptide of GPC3
# T13 peptide: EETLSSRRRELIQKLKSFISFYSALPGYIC
# T14: GPC3 peptide 81-110 (SEQ ID NO: 5) (human)
# T14 construct: Synthetic 30-residue peptide of GPC3
# T14 peptide: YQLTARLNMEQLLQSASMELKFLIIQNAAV
# T15: GPC3 peptide 201-230 (SEQ ID NO: 11) (human)
# T15 construct: Synthetic 30-residue peptide of GPC3
# T15 peptide: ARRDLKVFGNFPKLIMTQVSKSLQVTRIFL
# T16: GPC3 peptide 61-90 (SEQ ID NO: 4) (human)
# T16 construct: Synthetic 30-residue peptide of GPC3
# T16 peptide: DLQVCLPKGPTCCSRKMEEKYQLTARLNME
# T17: GPC3 peptide 401-430 (SEQ ID NO: 21) (human)
# T17 construct: Synthetic 30-residue peptide of GPC3
# T17 peptide: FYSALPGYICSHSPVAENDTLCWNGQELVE
# T18: GPC3 peptide 341-370 (SEQ ID NO: 18) (human)
# T18 construct: Synthetic 30-residue peptide of GPC3
# T18 peptide: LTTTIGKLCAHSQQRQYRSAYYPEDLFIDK
# T19: GPC3 peptide 501-530 (SEQ ID NO: 26) (human)
# T19 construct: Synthetic 30-residue peptide of GPC3
# T19 peptide: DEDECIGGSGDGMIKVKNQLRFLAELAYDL
# T20: GPC3 peptide 241-270 (SEQ ID NO: 13) (human)
# T20 construct: Synthetic 30-residue peptide of GPC3
# T20 peptide: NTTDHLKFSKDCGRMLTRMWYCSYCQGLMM
# T21: GPC3 peptide 261-290 (SEQ ID NO: 14) (human)
# T21 construct: Synthetic 30-residue peptide of GPC3
# T21 peptide: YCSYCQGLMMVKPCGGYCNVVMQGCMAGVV
# T22: GPC3 peptide 481-510 (SEQ ID NO: 25) (human)
# T22 construct: Synthetic 30-residue peptide of GPC3
# T22 peptide: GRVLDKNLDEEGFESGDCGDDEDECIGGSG
# T23: GPC3 peptide 361-390 (SEQ ID NO: 19) (human)
# T23 construct: Synthetic 30-residue peptide of GPC3
# T23 peptide: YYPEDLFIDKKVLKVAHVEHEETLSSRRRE
# T24: GPC3 peptide 21-50 (SEQ ID NO: 2) (human)
# T24 construct: Synthetic 30-residue peptide of GPC3
# T24 peptide: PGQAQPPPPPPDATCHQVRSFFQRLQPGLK
# T25: GPC3 peptide 101-130 (SEQ ID NO: 6) (human)
# T25 construct: Synthetic 30-residue peptide of GPC3
# T25 peptide: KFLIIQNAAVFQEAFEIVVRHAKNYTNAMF
# T26: GPC3 peptide 421-450 (SEQ ID NO: 22) (human)
# T26 construct: Synthetic 30-residue peptide of GPC3
# T26 peptide: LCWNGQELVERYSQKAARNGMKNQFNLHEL
# T27: GPC3 peptide 551-580 (SEQ ID NO: 29) (human)
# T27 construct: Synthetic 30-residue peptide of GPC3
# T27 peptide: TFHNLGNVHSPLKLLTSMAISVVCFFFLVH
# B1: GT114 antibody (antibody, IgG1, V domains shown)
# VH: DVQLQESGPGLVKPSQSLSLTCTVTGYSITSDSAWNWIRQFPGNKLEWMAYIMYSGITSYNPSLKSRISITRDTAKNQFFLQLNSVTTEDSATYYCSRGYWYFDVWGAGTTVTVSS
# VL: QIVLTQSPAIMSASLGEEITLTCSASSSVSYMHWYQQKSGTSPKLLIYSTSILASGVPSRFSGSGSGTFYSLTISSVEAEDAADYYCLQWITYRTFGGGTKLEIKR
# B2: GT165 antibody (antibody, IgG1, V domains shown)
# VH: QVQLQQSGAELVGPGASVKISCKAFGYTFTNHHINWVKQRPGQGLDWIGYINPYNDYTNYNQKFKGKATLTVDKSSSTAYMELSSLTSEDSAVYYCARSDPAWFAYWGQGTLVTVSA
# VL: DIQMTQSPSSLSASLGGKVTITCKASQDINKNIAWYQHKPGKGPRLLIWYTYTLQPGIPSRFSGSGSGRDYSFSISNLEPEDIATYYCLQYDNLPFTFGTGTKLEIKR
# Biological target: T28, AW2, C-terminally His-tagged recombinant product of positions 1 to 196 of GPC3 (human, UniProt P51654 25-196)
# T28 construct: Expressed in CHO cells, cell pellets used in Western blot; The range is as printed and starts at position 1; also called AW2 (1-196); not shown: C-terminal His tag
# T28 sequence (P51654 25-196): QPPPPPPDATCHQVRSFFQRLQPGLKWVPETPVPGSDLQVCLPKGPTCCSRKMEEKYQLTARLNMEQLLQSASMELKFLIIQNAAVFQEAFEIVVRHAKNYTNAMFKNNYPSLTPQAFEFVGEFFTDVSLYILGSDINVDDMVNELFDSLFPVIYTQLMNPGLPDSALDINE
# Experiment: Western blot, pellets of CHO cells expressing the product
row,Binder,binding result
1,B1,no binding
2,B2,no binding

# Biological target: T29, AW3, C-terminally His-tagged recombinant product of positions 1 to 218 of GPC3 (human, UniProt P51654 25-218)
# T29 construct: Expressed in CHO cells, cell pellets used in Western blot; The range is as printed and starts at position 1; not shown: C-terminal His tag
# T29 sequence (P51654 25-218): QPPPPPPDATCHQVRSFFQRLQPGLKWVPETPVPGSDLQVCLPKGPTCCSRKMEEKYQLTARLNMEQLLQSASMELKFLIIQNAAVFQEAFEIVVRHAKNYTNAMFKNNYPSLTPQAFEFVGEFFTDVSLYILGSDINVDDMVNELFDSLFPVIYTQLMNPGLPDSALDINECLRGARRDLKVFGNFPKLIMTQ
# Experiment: as above
row,Binder,binding result
1,B1,no binding
2,B2,no binding

# Biological target: T1, GPC3 peptide 541-570 (SEQ ID NO: 28)
# Experiment: peptide ELISA, peptide on plate
row,Binder,binding result
1,B1,no binding (tested: 2 µg/mL)
2,B2,no binding (tested: 2 µg/mL)

# Biological target: T2, GPC3 peptide 41-70 (SEQ ID NO: 3)
# Experiment: peptide ELISA, peptide on plate
row,Binder,binding result
1,B1,no binding (tested: 2 µg/mL)
2,B2,no binding (tested: 2 µg/mL)

# Biological target: T3, GPC3 peptide 221-250 (SEQ ID NO: 12)
# Experiment: peptide ELISA, peptide on plate
row,Binder,binding result
1,B1,no binding (tested: 2 µg/mL)
2,B2,no binding (tested: 2 µg/mL)

# Biological target: T4, GPC3 peptide 301-330 (SEQ ID NO: 16)
# Experiment: peptide ELISA, peptide on plate
row,Binder,binding result
1,B1,no binding (tested: 2 µg/mL)
2,B2,no binding (tested: 2 µg/mL)

# Biological target: T5, GPC3 peptide 121-150 (SEQ ID NO: 7)
# Experiment: peptide ELISA, peptide on plate
row,Binder,binding result
1,B1,no binding (tested: 2 µg/mL)
2,B2,no binding (tested: 2 µg/mL)

# Biological target: T6, GPC3 peptide 521-550 (SEQ ID NO: 27)
# Experiment: peptide ELISA, peptide on plate
row,Binder,binding result
1,B1,no binding (tested: 2 µg/mL)
2,B2,no binding (tested: 2 µg/mL)

# Biological target: T7, GPC3 peptide 441-470 (SEQ ID NO: 23)
# Experiment: peptide ELISA, peptide on plate
row,Binder,binding result
1,B1,no binding (tested: 2 µg/mL)
2,B2,no binding (tested: 2 µg/mL)

# Biological target: T8, GPC3 peptide 141-170 (SEQ ID NO: 8)
# Experiment: peptide ELISA, peptide on plate
row,Binder,binding result
1,B1,no binding (tested: 2 µg/mL)
2,B2,no binding (tested: 2 µg/mL)

# Biological target: T9, GPC3 peptide 321-350 (SEQ ID NO: 17)
# Experiment: peptide ELISA, peptide on plate
row,Binder,binding result
1,B1,no binding (tested: 2 µg/mL)
2,B2,no binding (tested: 2 µg/mL)

# Biological target: T10, GPC3 peptide 161-190 (SEQ ID NO: 9)
# Experiment: peptide ELISA, peptide on plate
row,Binder,binding result
1,B1,no binding (tested: 2 µg/mL)
2,B2,no binding (tested: 2 µg/mL)

# Biological target: T11, GPC3 peptide 281-310 (SEQ ID NO: 15)
# Experiment: peptide ELISA, peptide on plate
row,Binder,binding result
1,B1,no binding (tested: 2 µg/mL)
2,B2,no binding (tested: 2 µg/mL)

# Biological target: T12, GPC3 peptide 461-490 (SEQ ID NO: 24)
# Experiment: peptide ELISA, peptide on plate
row,Binder,binding result
1,B1,no binding (tested: 2 µg/mL)
2,B2,no binding (tested: 2 µg/mL)

# Biological target: T13, GPC3 peptide 381-410 (SEQ ID NO: 20)
# Experiment: peptide ELISA, peptide on plate
row,Binder,binding result
1,B1,no binding (tested: 2 µg/mL)
2,B2,no binding (tested: 2 µg/mL)

# Biological target: T14, GPC3 peptide 81-110 (SEQ ID NO: 5)
# Experiment: peptide ELISA, peptide on plate
row,Binder,binding result
1,B1,no binding (tested: 2 µg/mL)
2,B2,no binding (tested: 2 µg/mL)

# Biological target: T15, GPC3 peptide 201-230 (SEQ ID NO: 11)
# Experiment: peptide ELISA, peptide on plate
row,Binder,binding result
1,B1,no binding (tested: 2 µg/mL)
2,B2,no binding (tested: 2 µg/mL)

# Biological target: T16, GPC3 peptide 61-90 (SEQ ID NO: 4)
# Experiment: peptide ELISA, peptide on plate
row,Binder,binding result
1,B1,no binding (tested: 2 µg/mL)
2,B2,no binding (tested: 2 µg/mL)

# Biological target: T17, GPC3 peptide 401-430 (SEQ ID NO: 21)
# Experiment: peptide ELISA, peptide on plate
row,Binder,binding result
1,B1,no binding (tested: 2 µg/mL)
2,B2,no binding (tested: 2 µg/mL)

# Biological target: T18, GPC3 peptide 341-370 (SEQ ID NO: 18)
# Experiment: peptide ELISA, peptide on plate
row,Binder,binding result
1,B1,no binding (tested: 2 µg/mL)
2,B2,no binding (tested: 2 µg/mL)

# Biological target: T19, GPC3 peptide 501-530 (SEQ ID NO: 26)
# Experiment: peptide ELISA, peptide on plate
row,Binder,binding result
1,B1,no binding (tested: 2 µg/mL)
2,B2,no binding (tested: 2 µg/mL)

# Biological target: T20, GPC3 peptide 241-270 (SEQ ID NO: 13)
# Experiment: peptide ELISA, peptide on plate
row,Binder,binding result
1,B1,no binding (tested: 2 µg/mL)
2,B2,no binding (tested: 2 µg/mL)

# Biological target: T21, GPC3 peptide 261-290 (SEQ ID NO: 14)
# Experiment: peptide ELISA, peptide on plate
row,Binder,binding result
1,B1,no binding (tested: 2 µg/mL)
2,B2,no binding (tested: 2 µg/mL)

# Biological target: T22, GPC3 peptide 481-510 (SEQ ID NO: 25)
# Experiment: peptide ELISA, peptide on plate
row,Binder,binding result
1,B1,no binding (tested: 2 µg/mL)
2,B2,no binding (tested: 2 µg/mL)

# Biological target: T23, GPC3 peptide 361-390 (SEQ ID NO: 19)
# Experiment: peptide ELISA, peptide on plate
row,Binder,binding result
1,B1,no binding (tested: 2 µg/mL)
2,B2,no binding (tested: 2 µg/mL)

# Biological target: T24, GPC3 peptide 21-50 (SEQ ID NO: 2)
# Experiment: peptide ELISA, peptide on plate
row,Binder,binding result
1,B1,no binding (tested: 2 µg/mL)
2,B2,no binding (tested: 2 µg/mL)

# Biological target: T25, GPC3 peptide 101-130 (SEQ ID NO: 6)
# Experiment: peptide ELISA, peptide on plate
row,Binder,binding result
1,B1,no binding (tested: 2 µg/mL)
2,B2,no binding (tested: 2 µg/mL)

# Biological target: T26, GPC3 peptide 421-450 (SEQ ID NO: 22)
# Experiment: peptide ELISA, peptide on plate
row,Binder,binding result
1,B1,no binding (tested: 2 µg/mL)
2,B2,no binding (tested: 2 µg/mL)

# Biological target: T27, GPC3 peptide 551-580 (SEQ ID NO: 29)
# Experiment: peptide ELISA, peptide on plate
row,Binder,binding result
1,B1,no binding (tested: 2 µg/mL)
2,B2,no binding (tested: 2 µg/mL)
